Biological target: MyoD (UniProt P10085 1-318)
Assay: EMSA

Chain of MyoD (P10085 whole entry): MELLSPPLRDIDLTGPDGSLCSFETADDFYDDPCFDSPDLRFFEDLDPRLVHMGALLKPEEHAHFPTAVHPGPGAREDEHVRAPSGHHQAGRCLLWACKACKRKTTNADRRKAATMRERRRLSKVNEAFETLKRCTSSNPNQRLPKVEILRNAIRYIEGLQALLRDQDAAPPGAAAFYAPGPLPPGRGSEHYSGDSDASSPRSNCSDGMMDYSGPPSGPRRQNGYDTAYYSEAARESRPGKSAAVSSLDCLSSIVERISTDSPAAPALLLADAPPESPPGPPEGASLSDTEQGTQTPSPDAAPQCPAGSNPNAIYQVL

B1: G'2 bimolecular tetraplex integrin 26/integrin 29 (structured_DNA)
DNA 1: CATGGGGGCGGGAAGGGGCGGGGTCT
DNA 2: AAAGGTGGGGCGGCAGGGCGCAAGGCAAT
B1: binds.

Source: PMC1133794
